Test results reported in US20200353067A1.

Target: CX3CR1 (fractalkine receptor) (human) (UniProt P49238)
Assay: cell-based or functional assay

UniProt P49238, sequence (P49238 whole entry): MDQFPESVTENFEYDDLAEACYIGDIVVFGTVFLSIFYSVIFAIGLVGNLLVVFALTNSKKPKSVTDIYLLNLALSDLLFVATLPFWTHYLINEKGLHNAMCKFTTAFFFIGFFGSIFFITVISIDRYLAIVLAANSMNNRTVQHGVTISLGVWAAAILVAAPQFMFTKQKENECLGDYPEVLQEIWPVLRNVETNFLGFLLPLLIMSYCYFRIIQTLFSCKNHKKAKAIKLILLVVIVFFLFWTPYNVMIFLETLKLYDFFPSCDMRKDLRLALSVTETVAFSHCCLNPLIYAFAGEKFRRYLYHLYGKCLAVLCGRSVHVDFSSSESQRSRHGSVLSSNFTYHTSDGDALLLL

In the case of “RSV A2 strain G-protein (surface attachment glycoprotein) (from UniProt P03423 1-298) (ligand)”, the viral load is reported as 2.3 fold.
